Like-named read-outs stand apart in the source and are kept apart here.
Test system: SARS-CoV-2
Conditions: for All cause death or hospitalization for COVID-19: Bayes prob, Dichotomous / All cause death or hospitalization for COVID-19: Bayes prob, TTE / All cause death or hospitalization for COVID-19: HR (95% CrI), TTE / All cause death or hospitalization for COVID-19: RR (95% CrI), Dichotomous / ER visit ≥6 h or hospitalization due to COVID-19: Bayes prob, Dichotomous / ER visit ≥6 h or hospitalization due to COVID-19: Bayes prob, TTE / ER visit ≥6 h or hospitalization due to COVID-19: HR (95% CrI), TTE / ER visit ≥6 h or hospitalization due to COVID-19: RR (95% CrI), Dichotomous: vs placebo
[1] = ITT preliminary, n=916 vs placebo 1020, 28 days
[2] = ITT preliminary, n=916 vs placebo 1020, 28 days, listed as Interferon lambda
[3] = ITT preliminary, n=916 vs placebo 1020, 28 days, listed as Lambda
[4] = Treated within 3 days of symptom onset, n=539 vs placebo 586
[5] = Treated within 5 days of symptom onset, n=800 vs placebo 879

B1: pegylated interferon lambda-1a (protein)
chain: MKPTTTGKGCHIGRFKSLSPQELASFKKARDALEESLKLKNWSCSSPVFPGNWDLRLLQVRERPVALEAELALTLKVLEAAAGPALEDVLDQPLHTLHHILSQLQACIQPQPTAGPRPRGRLHHWLHRLQEAPKKESAGCLEASVTFNLFRLLTRDLKYVADGNLSLRTSTHPEST
modifications: PEG
notes: 180 mcg subcutaneous injection
Death or hospitalization due to COVID-19, % of patients [1]: (2.4%) | Death or hospitalization due to COVID-19, RR (95% CrI) vs placebo [1]: 0.61 (0.36, 0.99) | Hospitalization for COVID-19, RR (95% CrI) vs placebo [1]: 0.58 (0.34, 0.95) | Hospitalization or ER (any duration) for COVID-19, % of patients [1]: (10.6%) | Hospitalization or ER (any duration) for COVID-19, Pr (Superiority) [1]: 0.984 | Hospitalization or ER (any duration) for COVID-19, RR (95% CrI) vs placebo [1]: 0.77 (0.60, 0.98) | Hospitalization or ER ≥6 h for COVID-19, Pr (Superiority) [1]: 0.999 | Hospitalization or ER ≥6 h for COVID-19, RR (95% CrI) vs placebo [1]: 0.50 (0.31, 0.77) | Death due to COVID-19, % of patients [2]: (0.1%) | Hospitalization for COVID-19, % of patients [2]: (2.3%) | Hospitalization or ER ≥6 h for COVID-19, % of patients [2]: (2.7%) | Death due to COVID-19, % of patients [3]: 0.1% | Hospitalization for COVID-19, % of patients [3]: 2.3% | Hospitalization or ER ≥6 h for COVID-19, % of patients [3]: 2.7% | All cause death or hospitalization for COVID-19: events/patients (Omicron and not vaccinated): 0/9 | ER visit ≥6 h or hospitalization due to COVID-19: events/patients (Omicron and not vaccinated): 0/9 | All cause death or hospitalization for COVID-19: Bayes prob, Dichotomous (Omicron and not vaccinated): 0.532 | All cause death or hospitalization for COVID-19: Bayes prob, TTE (Omicron and not vaccinated): 0.912 | All cause death or hospitalization for COVID-19: HR (95% CrI), TTE (Omicron and not vaccinated): 0.00 (0.00, 4.43) | All cause death or hospitalization for COVID-19: RR (95% CrI), Dichotomous (Omicron and not vaccinated): 0.90 (0.03, 10.04) | ER visit ≥6 h or hospitalization due to COVID-19: Bayes prob, Dichotomous (Omicron and not vaccinated): 0.532 | ER visit ≥6 h or hospitalization due to COVID-19: Bayes prob, TTE (Omicron and not vaccinated): 0.912 | ER visit ≥6 h or hospitalization due to COVID-19: HR (95% CrI), TTE (Omicron and not vaccinated): 0.00 (0.00, 4.43) | ER visit ≥6 h or hospitalization due to COVID-19: RR (95% CrI), Dichotomous (Omicron and not vaccinated): 0.90 (0.03, 10.04) | All cause death or hospitalization for COVID-19: events/patients (Omicron and onset ≤3 days): 0/281 | ER visit ≥6 h or hospitalization due to COVID-19: events/patients (Omicron and onset ≤3 days): 0/281 | All cause death or hospitalization for COVID-19: Bayes prob, Dichotomous (Omicron and onset ≤3 days): 0.977 | All cause death or hospitalization for COVID-19: Bayes prob, TTE (Omicron and onset ≤3 days): 0.9982 | All cause death or hospitalization for COVID-19: HR (95% CrI), TTE (Omicron and onset ≤3 days): 0.00 (0.00, 0.35) | All cause death or hospitalization for COVID-19: RR (95% CrI), Dichotomous (Omicron and onset ≤3 days): 0.14 (0.00, 0.96) | ER visit ≥6 h or hospitalization due to COVID-19: Bayes prob, Dichotomous (Omicron and onset ≤3 days): 0.998 | ER visit ≥6 h or hospitalization due to COVID-19: Bayes prob, TTE (Omicron and onset ≤3 days): 0.9999 | ER visit ≥6 h or hospitalization due to COVID-19: HR (95% CrI), TTE (Omicron and onset ≤3 days): 0.00 (0.00, 0.17) | ER visit ≥6 h or hospitalization due to COVID-19: RR (95% CrI), Dichotomous (Omicron and onset ≤3 days): 0.08 (0.00, 0.50) | All cause death or hospitalization for COVID-19: events/patients (Omicron and vaccinated): 2/428 | ER visit ≥6 h or hospitalization due to COVID-19: events/patients (Omicron and vaccinated): 2/428 | All cause death or hospitalization for COVID-19: Bayes prob, Dichotomous (Omicron and vaccinated): 0.876 | All cause death or hospitalization for COVID-19: Bayes prob, TTE (Omicron and vaccinated): 0.911 | All cause death or hospitalization for COVID-19: HR (95% CrI), TTE (Omicron and vaccinated): 0.34 (0.05, 1.52) | All cause death or hospitalization for COVID-19: RR (95% CrI), Dichotomous (Omicron and vaccinated): 0.46 (0.09, 1.69) | ER visit ≥6 h or hospitalization due to COVID-19: Bayes prob, Dichotomous (Omicron and vaccinated): 0.999 | ER visit ≥6 h or hospitalization due to COVID-19: Bayes prob, TTE (Omicron and vaccinated): 0.9998 | ER visit ≥6 h or hospitalization due to COVID-19: HR (95% CrI), TTE (Omicron and vaccinated): 0.11 (0.02, 0.42) | ER visit ≥6 h or hospitalization due to COVID-19: RR (95% CrI), Dichotomous (Omicron and vaccinated): 0.17 (0.04, 0.53) | All cause death or hospitalization for COVID-19: events/patients (Omicron subgroup): 2/439 | ER visit ≥6 h or hospitalization due to COVID-19: events/patients (Omicron subgroup): 2/439 | All cause death or hospitalization for COVID-19: Bayes prob, Dichotomous (Omicron subgroup): 0.914 | All cause death or hospitalization for COVID-19: Bayes prob, TTE (Omicron subgroup): 0.9477 | All cause death or hospitalization for COVID-19: HR (95% CrI), TTE (Omicron subgroup): 0.29 (0.04, 1.27) | All cause death or hospitalization for COVID-19: RR (95% CrI), Dichotomous (Omicron subgroup): 0.41 (0.08, 1.45) | ER visit ≥6 h or hospitalization due to COVID-19: Bayes prob, Dichotomous (Omicron subgroup): >0.9999 | ER visit ≥6 h or hospitalization due to COVID-19: Bayes prob, TTE (Omicron subgroup): 0.9999 | ER visit ≥6 h or hospitalization due to COVID-19: HR (95% CrI), TTE (Omicron subgroup): 0.11 (0.02, 0.43) | ER visit ≥6 h or hospitalization due to COVID-19: RR (95% CrI), Dichotomous (Omicron subgroup): 0.17 (0.04, 0.50) | risk reduction, hospitalization alone (Phase 3 study, single s.c. dose within 7 days of symptom onset): 44% | Log odds (95% CrI) vs Placebo, Bayesian logistic regression (Table 11 Model 1: Treatment alone): −0.69 (−1.17, −0.26) | Log odds vs Placebo, Bayesian logistic regression (Table 11 Model 2: Unvaccinated as an effect-modifier): −0.67 | OR (95% CrI) vs Placebo, Bayesian logistic regression (Table 12 Model 1: Treatment alone): 0.50 (0.31, 0.77) | OR (95% CrI) vs Placebo, Bayesian logistic regression (Table 12 Model 2: Treatment + Vaccination): 0.49 (0.29, 0.78) | OR (95% CrI) vs Placebo, Bayesian logistic regression (Table 12 Model 3: Treatment + Vaccination + Early onset (≤3 days)): 0.48 (0.29, 0.77) | OR (95% CrI) vs Placebo, Bayesian logistic regression (Table 12 Model 4: Treatment + Vaccination + Early onset (≤5 days)): 0.48 (0.29, 0.77) | Death due to COVID-19, % of patients [4]: (0%) | Death due to COVID-19, RR (95% CrI) vs placebo [4]: 0.21 (0.01, 1.66) | Death or hospitalization due to COVID-19, % of patients [4]: (1.5%) | Death or hospitalization due to COVID-19, RR (95% CrI) vs placebo [4]: 0.40 (0.18, 0.83) | Hospitalization for COVID-19, % of patients [4]: (1.5%) | Hospitalization for COVID-19, RR (95% CrI) vs placebo [4]: 0.40 (0.18, 0.82) | Hospitalization or ER (any duration) for COVID-19, % of patients [4]: (10%) | Hospitalization or ER (any duration) for COVID-19, Pr (Superiority) [4]: 0.964 | Hospitalization or ER (any duration) for COVID-19, RR (95% CrI) vs placebo [4]: 0.75 (0.54, 1.03) | Hospitalization or ER ≥6 h for COVID-19, % of patients [4]: (2%) | Hospitalization or ER ≥6 h for COVID-19, Pr (Superiority) [4]: 0.996 | Hospitalization or ER ≥6 h for COVID-19, RR (95% CrI) vs placebo [4]: 0.43 (0.21, 0.81) | Death due to COVID-19, % of patients [5]: (0.1%) | Death due to COVID-19, RR (95% CrI) vs placebo [5]: 0.39 (0.05, 1.96) | Death or hospitalization due to COVID-19, % of patients [5]: (2.2%) | Death or hospitalization due to COVID-19, RR (95% CrI) vs placebo [5]: 0.56 (0.32, 0.96) | Hospitalization for COVID-19, % of patients [5]: (2.1%) | Hospitalization for COVID-19, RR (95% CrI) vs placebo [5]: 0.53 (0.29, 0.91) | Hospitalization or ER (any duration) for COVID-19, % of patients [5]: (10.2%) | Hospitalization or ER (any duration) for COVID-19, Pr (Superiority) [5]: 0.992

— US20230201308A1, “TREATMENT OF CORONAVIRUS INFECTION WITH […]” (Eiger Biopharmaceuticals, Inc., priority 2020, published 2023)
